From the DeepSol protein solubility set

Assay: soluble on expression in E. coli; label from the status in PepcDB or PDB records

Sequence	soluble on expression in E. coli
MGSDKIHHHHHHMQATTATPHDIVFLFDCDNTLLDNDHVLADLRAHMMREFGAQNSARYWEIFETLRTELGYADYLGALQRYRLEQPRDTRLLLMSSFLIDYPFASRVYPGALNALRHLGARGPTVILSDGDVVFQPRKIARSGLWDEVEGRVLIYIHKELMLDQVMECYPARHYVMVDDKLRILAAMKKAWGARLTTVFPRQGHYAFDPKEISSHPPADVTVERIGDLVEMDAEWLLAEKR	not soluble
MGSDKIHHHHHHMQCIRVGVIGAGGVAQVEHIPNLLKLHRQFKILGVYDPSRKVRAFVGEEFGLETFSDLDALLAMPLDAVVIASPDALHREQSLAAFARGLHVFCEKPLCYGAQDIDQLIAARDRAGKVLQVGYMKRFDPSYEAALNMLPGTARTLRSVSVEVNDPDAWPFIRHASTCRGDDVAAELIASTEARQREQVDRAVPGLDDPHAFRGFVGAYSSSIVHDVNAVHGLLDALGVADGEIVGASLFAKGEAGQGTVRLLDGQALWTMAHIATPGLPDYRERITLHFDDASLELEFPSPYLNHQPTRLTIRTGDGHTLSSRDIRSGYEEAFVEELKGFWSAIVEGTAVRNTAEHARRDMTLLAGLTRHHLDQSKQSGVRP	not soluble
MGSDKIHHHHHHMQDFSNLVEKVENTLIPYFRKIEKRALFNQEKVLNAFHHVKASESDLQGSTGYGYDDFGRDHLEQIYAHTFKADDALVRPQIISGTHAITLALQSTLKNNDELLYITGSPYDTLLEVIGINGNGVESLKEYGVRYNEVELRDGRIDIPKVITAINDNTKVVAIQRSKGYDQRPSITINEIEQAITSIKEVYPNIIIFVDNCYGEFVEDKEPIEVGADLIAGSLIKNPGGGLAKIGGYIAGRQDLIERCGYRLTAPGIGKEAGASLNSLQEMYQGFFLAPHVVSQSLKGALFTSLLLEKINMKTSPKYNVYRTDLIQTVQFETKEQMISFCQSIQHASPINAHFSPEPSYMPGYEDDVIMAAGTFIQGSSIELSADGPIRPPYEAYVQGGLTYEHVKLAVTRAVQHMQENNLL	not soluble
MGSDKIHHHHHHMQDLLRWKNSKHRKPLILKGVRQVGKTWLLKEFARRYYNNLAYFNFDEHPEYKQFFENTKDVERILQNLMMASGQIINPKEPGTTLIVFDEIQECPNALNTLKYFCENTPHYHVACAGSLLGIALSKPASFPVGKVDFLEIGPMTFTEFLLANGDGNFVSYLDNLDRIEPIPDAFFNPLYEKLKMYFVTGGMPESVRSWTEERDVELVQQVLANILGAYERDFAKHPDPKDFPKISLIWKSLPSQLARENKKFIYKVVKEGARAREYEEALQWLCDASLAYKIYRSSAPGLPISAYDDLAAFKLYLVDVGLLRRLSLLAPSAFGEGNRLFVEFKGALSENYVLQALRNQLEAMPRYWTMDNPRHEVDFLIQRENEIIPVEVKSETNVESRSLKKFKEKYGDKVKLRVRFSLNNLRLDGDLLNIPLFITDYADKLIGMALTDQPKE	not soluble
MGSDKIHHHHHHMQDLNDIALFAAVVKHNGFSAAARDLNVPKSKLSKHVARLEEQLGVRLLERSTRKLRMTEVGRIFYEHAQGLLDGVAAAEAEIAAVRAEPTGVVRLACPIGFTPMLADILPAFHRRYPGVRLLITASNRRIDLIEERIDVALRARDQLDTDSQLIVRKFGEVRQRLAASPTLLARLGEITTDNLSQMPTLSMNEQHPNDVWRLVHATGGAIEIAHRPVVGCSDFLILERAAIEGMGIALLPDHICERAFRTGALVPVLPEWTSGNVMVHLVFPSRHGLLPATRALIDFLAENLIKALERCREVDPRPAASFEI	not soluble
MGSDKIHHHHHHMQEIFAVLPETIRQLLKKLPPSIQKDVEEIRIRVHRPLEVIVNHLPHYPEHQGCEYVVTTKDAQFLLNQLSAYSIYAFEEELKRGFITMAGGHRVGLAGKVTLEKGYVKTVRDISSFNIRVAKQKIGTAEPLISHVYQKGWLNTLLIGPPQSGKTTLLRDLARLVSVGWSRKGIPPLKVGIVDERSEIAAAVKGVPQHELGMRVDVLDGCPKAEGMMMMIRSMSPDVLIVDEIGRKEDCVAIQEALHAGVKVMTTAHGYELEEVSKRPAIRELLEIEAFDRCIELERRAKPGVVRRIRNAKAKDVGYVS	not soluble
MGSDKIHHHHHHMQFNKPLRQGVLQKRYKRFLADIDFGDNETTTTHCPNTGAMTGCAEPGFTAWCSVSDNPKRKYSLTWELAQNNNGEMIVVNTQHANRMAGELLQTNLVPELSQWQELKPEQRYGKEKSRIDWWGVDQHNRECFIEVKSVTLADASQGYFPDAVSQRAHKHLNELMQVVADGHRAVQLYMVMHDGIERVSPAAHIDSQYAELCRKAASVGVEFYAVKCRASAKEIKLERPVPVSL	not soluble
MGSDKIHHHHHHMQKKGNKYGTHRVLAPQGVLPQPAEKVDNNMDEIYDNEILIDVKTLNIDSASFTQIHEQAGGDKAKIAEIMLGIVAKQGKHRNPVTGSGGMLLGVVEKIGDALKDKIDLKVGDKIATLVSLSLTPLRIDKIKEIRPDVDQVDIEGKAILFESGIYAKIPNDLPEKLALSALDVAGAPAQTAKLVKPGDTVLIIGAGGKSGMLCCYEAKKRAGVTGKVIGLCHSQKSTDRLKALGFCDHVFSADATKPVPVMEEIEKLTNGEMCDVTINNVNITDTEMTSILCTKNDGIVYFFSMATSFTKAALGAEGVGSDVTMIVGNGYTKGHAEITLQELRECEALRKVFTELYA	not soluble
MGSDKIHHHHHHMQKLLSVIPSVDKLIKQLAGIALIQQYGHQAFVAQARQVIDSLRQHILTHQSLPVDQPADNLLSLIATNLQQTQQIAMKKVFNLTGTILHTNLGRAIWSEAAITAASDAMRHHSALEFDIEAGKRSHRDNTISQLLCEITGAEAACVVNNNAAAVLLMLATFAKGKEVIVSRGELVEIGGAFRIPDIMQQAGCKLVEVGTTNRTHLKDYRAAINENTALLMKVHTSNYQIQGFTHSVSEQQLVELGQEVGLPVMSDLGSGSLIDMATFGLPAEPLVQQKVASGVALVTFSADKLLGGPQAGIIVGKKADIEALQAHPLKRVLRCDKVILAGLEATLRHYLLPDQLTTHLPTLSLLTQSIDHLRVKATRLQNSLSKRLDARYHLQIEQSLAQIGSGALPTERLASLAVTITAPTQRDLLQLEQQFKMLKYPIIGRFAEQKLWLDLRSVAQFDQLIEMLEEK	not soluble
MGSDKIHHHHHHMQLSAMFVHPVKSCRGIAFDRAYAGKLGLLHDREWLLVSPDGQQITARAHPKLVTIRVELLPGGALLHHSGKAPIFAMATAYTRPHPAQVWKDGFQAWHGDERVDAWFADILGCDCRLLWLGAQSNRPFKGGPETMSFADGYPFLLASQASLDDLNRQLAAPVTLRHFRPNLVVSGAYPWEEDEWQVIRIGDVEFDVVKPCVRCVLTTVDPELGEKRADGEPLQTLIRTRMLDAGVCFGMNLRARNEGVLELGAPVEVLEQRYSF	not soluble
MGSDKIHHHHHHMQPLLQLQGITKSFPGVKALSGAALNVYPGKVMALVGENGAGKSTMMKVLTGIYRKDAGSIHFLGQEVDFNGPKASQEAGIGIIHQELNLIPQLTIAENIFLGREFTNRFGRIDWNKMYAEADKLLKRLNLRYDSRRMVGDLSIGDQQMVEIAKVLSFESKVIIMDEPTDALTDTETASLFSVINELQSQGCGIVYISHRLKEIFEICDDITVFRDGQFIGERPVSDLEEDTLIEMMVGRKLEDQYPRSNKAPGEVRLKVQNLSGPGVDSVSFTVRKGEILGVAGLMGAGRTELMKILYGALPRTGGNVTLDGRDVVTRKPQDGLANGIVYISEDRKRDGLVLGMSVKENMSLTALRYFSHAGGRLKHAEEQLTVADFIRLFNVKTPSMEQPIGLLSGGNQQKVAIARGLMTRPNVLILDEPTRGVDVGAKKEIYQLINQFKEEGLSIILVSSEMPEVLGMSDRIIVMHEGRLSGDFPIEQATQEALMAAAVGKQYGAKQE	not soluble
MGSDKIHHHHHHMQPTYNIDNPNLSYEAKRDLWRIGFGLQKVDNLVPSAYMESLAEKQSRGELTYEQVYEDATAYHHTIDASTEEADLVSLRIVELLSRRGFSFSPAILLAIHKELFQDIFEPSIPVGQFRQTNITKNEPVLNGESVVYSDYSMIQMTLDYDFNQEKQVAYATLTQADMVKKIQHFISGIWQIHPFREGNTRTVTVFLIQYLREFGFDIDNTPFQQHSKYFRDALVLDNAKILQRRPEFLTAFFENLLLGGQNDLSSEKMYLDLDLDLS	not soluble
MGSDKIHHHHHHMQQAIEQTATGGALRFNGICKVFPGVKALSDISFEARPGSVHALMGENGAGKSTLLKILGGSYQPNSGTLQIGEHSYQFKSTAESIAAGVAVIHQELHLVPEMTVAENLLLGHMPNRFGLINRGAMYRRAGELLKGLADEIDPRTRLGDLSLGQRQLVEIAKAMSRNAHVIAFDEPTSSLSAREIDRLMAIIVRLRDEGRVILYVSHRMEEIFRVCDAVTVFKDGRFVKTFEQMADLDHDRLVTCMVGRDIQDIYNYRPRQHQGPSLRVTGLLGLGLQEPVSFAVQKGEVLGFFGLVGAGRTELFRILSGLTRSTAGSLQLDGQPLTLKSPRDAIAAGVLLCPEDRKKEGIVPLSSVAENINIGARPRHVNLGCLIQGGWERDNARAQIKSMNVKTPSPEQQIMFLSGGNQQKAILGRWLSMPMKVLLLDEPTRGIDVGAKSEIYEIIHTLAADGIAVIVVSSDLMEVMGISDRILVMSEGAITGELNRDEADESRLLQLALPRTRG	not soluble
MGSDKIHHHHHHMQQEIIDFRQSQSLAGAELSRASYQRFDFGRHVHEDLHLGAVIRGAQAFNHKGTGHTLCRGDLSTLSPDECHDGIAATDTGYEVLVLSLPQWHLDRFAAELGISFGGFCQPKRKDMALYQAFVSLHRLLYQAENPLLEETALLDFFQRLLGQCSKSEKVTNTGTVKAGLSREIRLAKSLMADTPEPVTLELLGDATGLGRYRLLRHFRAQTGLSPHQWQLRLRLERAKKSLMQNDGNSLTDIAHQHGFSDLSHFTRHFRMAFLTSPSAYRRAIRN	not soluble
MGSDKIHHHHHHMQQSTPYLSFRGIGKTFPGVKALTDISFDCYAGQVHALMGENGAGKSTLLKILSGNYAPTTGSVVINGQEMSFSDTTAALNAGVAIIYQELHLVPEMTVAENIYLGQLPHKGGIVNRSLLNYEAGLQLKHLGMDIDPDTPLKYLSIGQWQMVEIAKALARNAKIIAFDEPTSSLSAREIDNLFRVIRELRKEGRVILYVSHRMEEIFALSDAITVFKDGRYVKTFTDMQQVDHDALVQAMVGRDIGDIYGWQPRSYGEERLRLDAVKAPGVRTPISLAVRSGEIVGLFGLVGAGRSELMKGMFGGTQITAGQVYIDQQPIDIRKPSHAIAAGMMLCPEDRKAEGIIPVHSVRDNINISARRKHVLGGCVINNGWEENNADHHIRSLNIKTPGAEQLIMNLSGGNQQKAILGRWLSEEMKVILLDEPTRGIDVGAKHEIYNVIYALAAQGVAVLFASSDLPEVLGVADRIVVMREGEIAGELLHEQADERQALSLAMPKVSQAVA	not soluble
MGSDKIHHHHHHMQTPSYFTPASFDFLTKLEHNNNREWFKANQAEYELQVRTPALHFIEAMSGSVVDLSPRLTAVAKKVGGSLMRPQRDSRFSKDKTPYKLNVGIQFRHFQAKDVHAPGLYLHLANDGCFIAAGIWHPESKALNAIRHCIDENPKGYQKAIANLTAAGFELSGDSLSRPPRGFDKSHPLIDELKRKDFIAIKDISLEQVCQLDLVDFCAQQYQYTSALMYYLCFALDLDF	not soluble
MGSDKIHHHHHHMQVNRLFQIIYILLEKNSVTARELAEKIEVSKRTIYRDIETLSTAGIPVYMTKGKGGGISILPNFILNKAILTEEEKSEIISSIRAVNAVNFSDSEAEKVLIKLNSILGENDTDWIEVDFSNWGNAEKEKETFNNLKTAILSKKVVKFDYSSAKGENISRKVCPLKLCFKGQSWYMYGYCGIRNDYRFFKLRRIKDLYVSEESFNIKAPKKIMKEDNVFYDEFITLKMKISSKMAYRIYDEFEDFKKLDDGSFIVTAEYPKGEWLFSYISSFGEECEVLAPQEIREEIKNKIEKMLLNYS	not soluble
